In one assay the target is T1, ECF04_1609.
T1 chain: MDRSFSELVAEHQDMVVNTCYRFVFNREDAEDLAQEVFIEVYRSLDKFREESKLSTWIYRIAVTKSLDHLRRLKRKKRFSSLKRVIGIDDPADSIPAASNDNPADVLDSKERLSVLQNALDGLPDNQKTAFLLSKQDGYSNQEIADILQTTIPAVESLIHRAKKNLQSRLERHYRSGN

The target of the next assay is T2, ECF14_1324.
T2 chain: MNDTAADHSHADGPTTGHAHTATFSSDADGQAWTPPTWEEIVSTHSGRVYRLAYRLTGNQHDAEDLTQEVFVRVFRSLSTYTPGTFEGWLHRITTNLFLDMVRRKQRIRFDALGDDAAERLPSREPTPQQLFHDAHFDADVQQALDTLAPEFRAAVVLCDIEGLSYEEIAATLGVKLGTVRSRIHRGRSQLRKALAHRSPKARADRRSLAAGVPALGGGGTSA

For a further assay, the target named is T3, ECF14_3200.
T3 chain: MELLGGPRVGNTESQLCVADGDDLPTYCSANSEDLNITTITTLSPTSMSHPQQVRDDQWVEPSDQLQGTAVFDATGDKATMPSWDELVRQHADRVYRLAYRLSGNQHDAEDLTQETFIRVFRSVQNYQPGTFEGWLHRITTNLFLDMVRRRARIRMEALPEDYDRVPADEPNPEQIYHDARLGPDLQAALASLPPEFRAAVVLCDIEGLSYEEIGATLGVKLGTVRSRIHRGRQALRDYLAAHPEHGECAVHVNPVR

The next assay concerns the target T4, ECF15_436.
T4 chain: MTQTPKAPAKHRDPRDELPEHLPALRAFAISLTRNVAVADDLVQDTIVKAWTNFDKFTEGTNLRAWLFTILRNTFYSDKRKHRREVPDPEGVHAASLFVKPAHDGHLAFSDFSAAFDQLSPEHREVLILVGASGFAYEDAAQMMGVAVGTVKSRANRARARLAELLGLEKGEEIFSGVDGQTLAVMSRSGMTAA

Another assay has as its target T5, ECF15_524.
T5 chain: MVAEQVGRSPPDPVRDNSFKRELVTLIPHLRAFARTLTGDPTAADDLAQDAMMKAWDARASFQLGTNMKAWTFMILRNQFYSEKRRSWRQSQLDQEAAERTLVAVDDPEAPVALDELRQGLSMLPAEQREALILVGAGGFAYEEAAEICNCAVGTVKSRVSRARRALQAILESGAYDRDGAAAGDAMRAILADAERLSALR

The target in another assay is T6, ECF16_3622.
T6 chain: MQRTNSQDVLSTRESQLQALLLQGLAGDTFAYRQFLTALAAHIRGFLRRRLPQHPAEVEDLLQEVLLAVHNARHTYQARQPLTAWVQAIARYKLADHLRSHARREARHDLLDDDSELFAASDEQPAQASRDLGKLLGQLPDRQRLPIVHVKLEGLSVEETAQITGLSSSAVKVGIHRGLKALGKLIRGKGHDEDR

The next assay deals with T7, ECF17_1691.
T7 chain: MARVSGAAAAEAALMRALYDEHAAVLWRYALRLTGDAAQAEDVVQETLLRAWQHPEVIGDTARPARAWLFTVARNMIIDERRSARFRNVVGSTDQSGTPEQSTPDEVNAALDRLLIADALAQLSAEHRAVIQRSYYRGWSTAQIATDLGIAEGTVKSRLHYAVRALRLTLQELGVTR

Another assay deals with T8, ECF22_1147.
T8 chain: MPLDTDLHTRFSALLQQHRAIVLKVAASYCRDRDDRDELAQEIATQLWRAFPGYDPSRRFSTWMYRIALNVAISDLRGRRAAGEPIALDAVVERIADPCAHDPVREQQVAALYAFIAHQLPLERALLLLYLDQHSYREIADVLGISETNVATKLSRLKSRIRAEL

Another assay has as its target T9, ECF28_1040.
T9 chain: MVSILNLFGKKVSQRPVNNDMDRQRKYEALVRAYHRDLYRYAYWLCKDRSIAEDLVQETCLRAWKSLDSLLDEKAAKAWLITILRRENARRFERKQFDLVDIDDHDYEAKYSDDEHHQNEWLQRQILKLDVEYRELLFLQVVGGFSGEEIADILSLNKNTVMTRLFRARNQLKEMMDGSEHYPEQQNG

Another assay has as its target T10, ECF28_1088.
T10 chain: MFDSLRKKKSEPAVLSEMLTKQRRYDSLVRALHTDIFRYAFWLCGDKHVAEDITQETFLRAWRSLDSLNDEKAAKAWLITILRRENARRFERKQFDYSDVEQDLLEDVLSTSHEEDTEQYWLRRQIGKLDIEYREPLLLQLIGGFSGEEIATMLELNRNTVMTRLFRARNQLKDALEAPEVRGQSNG

The target of the next assay is T11, ECF33_375.
T11 chain: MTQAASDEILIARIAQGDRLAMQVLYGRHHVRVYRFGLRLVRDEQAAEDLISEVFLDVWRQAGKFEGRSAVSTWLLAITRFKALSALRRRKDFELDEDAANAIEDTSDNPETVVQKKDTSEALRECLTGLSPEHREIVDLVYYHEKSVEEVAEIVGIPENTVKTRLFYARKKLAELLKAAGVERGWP

The target in another assay is T12, ECF33_423.
T12 chain: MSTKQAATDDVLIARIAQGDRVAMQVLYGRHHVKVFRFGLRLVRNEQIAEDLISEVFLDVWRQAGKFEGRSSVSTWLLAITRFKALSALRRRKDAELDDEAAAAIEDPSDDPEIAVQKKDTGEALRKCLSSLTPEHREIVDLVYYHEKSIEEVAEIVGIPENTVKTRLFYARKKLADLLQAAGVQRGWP

The target in another assay is T13, ECF37_2513.
T13 chain: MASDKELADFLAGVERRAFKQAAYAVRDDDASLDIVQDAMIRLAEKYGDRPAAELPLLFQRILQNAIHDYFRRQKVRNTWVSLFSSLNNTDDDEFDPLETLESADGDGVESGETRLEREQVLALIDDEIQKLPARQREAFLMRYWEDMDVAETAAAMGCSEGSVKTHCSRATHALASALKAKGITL

A further assay concerns the target T14, ECF38_1322.
T14 chain: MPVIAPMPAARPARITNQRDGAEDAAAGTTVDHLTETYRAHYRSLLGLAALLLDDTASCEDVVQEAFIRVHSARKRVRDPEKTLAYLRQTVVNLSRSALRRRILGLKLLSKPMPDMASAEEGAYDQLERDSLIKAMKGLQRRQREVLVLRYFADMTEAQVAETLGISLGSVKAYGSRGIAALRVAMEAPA

Drawing on paper PMC3817407, this text covers fold repression for five molecules.

B1: AS35_3582 (protein)
chain: MNPQKHSASVAEEQMLAHFRAHAPQQPAPALDQAILAAARRQAAHVEPARSWWRRWLEASRRPRWQAAFASLLGVALVLGLVSHNVLDDAERQARPEVAFSDVPLRDGVAGAAAAKRAMRAPAAPAPLSGEMSEPPALLASYASSGEAPQLMAEAAPPAPAALADRPPAQAAQQAKVQAALAGDFVAQARGKAVAVKPEVLDEALGAVLALREQGKTEQAATQLAELQKRFPGENLVERLERLATIAASARKRP
On to B1, for which the fold repression with ECF04_1609 turned out to be 6.84; with ECF14_1324, 13.1; in the assay with ECF14_3200, 11.7; in the assay with ECF15_436, 7.43; in the assay with ECF15_524, 5.37; with ECF16_3622 it was 6.44. The fold repression stood at 4.63 with ECF17_1691; 10.9 in the assay with ECF22_1147; 2.76 in the assay with ECF28_1040; 3.76 with ECF28_1088; 2.9 with ECF33_375; 3.76 with ECF33_423. Also, the fold repression with ECF37_2513 came to 8.97; with ECF38_1322, 3.42.

B2: AS31_34 (protein)
chain: MNKEKLSDHLKSEWKKIDQTANPSIPNQKELLHQLSQMKAEYRKKLLQEIILFVFCALMVVSAAILAFTQAPAVFIVLQVCVLAVLPILIAAEKKRHLGECEVKRG
B2: the fold repression with ECF04_1609 came out at 2.79; with ECF14_1324, 6.35; in the assay with ECF14_3200, 2.7; with ECF15_436, 2.54; in the assay with ECF15_524 it was 2.19; with ECF16_3622, 3.01. In addition, the fold repression was 2.93 with ECF17_1691; 3.62 in the assay with ECF22_1147; 2.22 with ECF28_1040; 1.59 in the assay with ECF28_1088; 2.06 with ECF33_375; 2.25 with ECF33_423. Besides, the results for the fold repression with ECF37_2513 and with ECF38_1322 were 3.38 and 2.06, respectively.

B3: AS33_375 (protein)
chain: MMALSKKMLEQEPSEIELLLPWHAAGTLNARDARRVEDALARDPELAKQYAAIRGEYEETIHLNESLGAPSARAMQKLFGAIDAEPARETGSLPLSARIATFFASLSPRTLAWSASLGAVALVLQAGIIGAVLMKTQPTTFQTASLSTSAPITRELGAAVAPARALVRFTPEARVADITALLDSYQASIIGDAKGGMFRLQFDKAMSQDELASLLGRMQREKFVNLAVAAP
B3: the fold repression with ECF04_1609 came out at 11.1; in the assay with ECF14_1324, 44.6; with ECF14_3200, 17.8; with ECF15_436, 20.3; in the assay with ECF15_524, 14.3; in the assay with ECF16_3622, 22.6. In addition, the fold repression worked out at 3.94 with ECF17_1691; 12.9 with ECF22_1147; 3.33 in the assay with ECF28_1040; 3.72 with ECF28_1088; 152 with ECF33_375; 113 with ECF33_423. The figures for the fold repression in the assay with ECF37_2513 and in the assay with ECF38_1322 were 13.5 and 7.66, respectively.

B4: AS37_2513 (protein)
chain: MSSAPATKEEVDFALKVRRALDERAASLPDATTDRLAAARRAALARKKPDAAIVLVPALAGSAGTLELRPPGEPRKSLARRLARAWPLALLLAGLIGIAYWEDMQRTAELADIDAAMLSDNLPLTAYLDHGFNAYLSHTH
B4: the fold repression was determined as 4.3 with ECF04_1609; 13.8 with ECF14_1324; 11.4 with ECF14_3200; 5.3 with ECF15_436; 4.06 with ECF15_524; 5.36 with ECF16_3622. The fold repression was found to be 4.17 with ECF17_1691; 8.31 with ECF22_1147; 2.67 with ECF28_1040; 3.31 with ECF28_1088; 2.48 with ECF33_375; 3.3 with ECF33_423. The fold repression was 13.5 in the assay with ECF37_2513 and 2.73 with ECF38_1322.

B5: AS33_423 (protein)
chain: MMAMSNTMPDPREPGDVEALLPWYAAGTLNARDARRVADALDRDPALARQYAVILEEYASTIELNESLGAPSSRAMQKLFAAIDAEPARAPGAGQGLGARFAGFFAGLSPKALAWSASVAGLALLLQAGLIGALLTWPHAAPVQTAAYQPQREVARAPASSPAPATVSPPAAAMADRAADAGKSTPPMVMAERSGGPVVRSLAPQSGPRVLVKFAPEARASEIAALLDQYNAVVVDSSRGGLFRLQFGTQSLSKQDQETLIGRLQKEPVVSVVLSAP
Consider B5, for which the fold repression was 6.18 with ECF04_1609; 36 in the assay with ECF14_1324; 12.2 with ECF14_3200; 14.3 with ECF15_436; 9.15 with ECF15_524; 35.1 with ECF16_3622. Moreover, the fold repression with ECF17_1691 was 3.16; with ECF22_1147 it was 9.02; with ECF28_1040, 2.67; in the assay with ECF28_1088 it was 3.17; with ECF33_375 it was 114; with ECF33_423, 84.3. For the same molecule, the results for the fold repression with ECF37_2513 and in the assay with ECF38_1322 were 10 and 5.66, respectively.
